Assay [1] concerns the target T1, FcγRIIIAF158 (UniProt P08637 17-208).
T1 construct: F158 allotype; also called FcγRIIIA158F
Description: SPR (Biacore T200), antibody captured by anti-human IgG F(ab')2 on CM5, FcγRIIIA as analyte; FcγRIIIAF158. The protocol:
(§1) The affinities of the Fc function-enhanced humanized CCR8 antibodies to FcγRIIIAV158 and FcγRIIIAF158 were detected by using a surface plasmon resonance technology (SPR/Biacore T200). A coupling reagent Amine Coupling Kit (GE Healthcare BR-1000-50) was used to couple Goat Anti-Human IgG F(ab′)2 to the surface of a CM5 chip. h87D8 H2K4 e5 or h87D8 H2K4 was captured through high-affinity binding with the antibodies and then gradiently diluted FcγRIIIAV158 or FcγRIIIAF158 was injected in sequence. The binding time was set to be 120 seconds, the dissociation time was set to be 200 seconds, regeneration was performed for 30 seconds by 10 mM Glycine-HCl with the pH value of 1.75, and the flow rate was set to be […]. The measured data were fitted to obtain an equilibrium dissociation constant. The affinities of h87D8 H2K4 e5 or h87D8 H2K4 to FcγRIIIAV158 and FcγRIIIAF158 were respectively measured. […] The binding of h87D8 H2K4 e5 to FcγRIIIAV158 and FcγRIIIAF158 was stronger than that of h87D8 H2K4.

Assay [2] addresses T2, rabbit CCR8 (rabbit).
T2 construct: Transiently expressed on HEK293 cells; also called HEK293-rabbit CCR8 cells; rabbit CCR8+ cells
T2 chain: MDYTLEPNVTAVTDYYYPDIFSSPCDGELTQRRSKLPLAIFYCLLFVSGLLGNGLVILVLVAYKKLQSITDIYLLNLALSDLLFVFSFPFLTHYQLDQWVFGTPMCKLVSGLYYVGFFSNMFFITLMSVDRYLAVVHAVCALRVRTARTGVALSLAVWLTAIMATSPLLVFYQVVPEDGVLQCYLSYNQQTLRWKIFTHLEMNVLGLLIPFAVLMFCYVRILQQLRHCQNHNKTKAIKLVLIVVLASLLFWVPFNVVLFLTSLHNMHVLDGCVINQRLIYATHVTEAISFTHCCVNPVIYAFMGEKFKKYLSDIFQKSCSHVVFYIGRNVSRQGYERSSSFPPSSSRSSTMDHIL
Description: flow cytometry on HEK293-rabbit CCR8 cells. The method, then: A lentiviral vector plasmid containing rabbit CCR8 was constructed by using a rabbit CCR8 cDNA (biosynthesized by GENEWIZ, Suzhou and having the amino acid sequence shown in SEQ ID NO. 112) as a template. The lentiviral vector plasmid containing rabbit CCR8 was transfected into HEK293 cells (hereinafter referred to HEK293-rabbit CCR8 cells) by using PEI MAX® (Polysciences 9002-98-6) as a transfection reagent referring to instructions of a transfection reagent. 24 hours after the transfection, 5×10⁴ HEK293-rabbit CCR8 cells were added per well in a 96-well U-shaped plate and centrifuged to discard the supernatant. 100 μL of a gradiently diluted h87D8 H2K4 e5 or anti-KLH isotype control antibody was added per well and the mixture was incubated on ice for 60 minutes. After the unbound primary antibody was washed away, 50 μL of a secondary antibody AlexaFluro647 anti-human IgG (Jackson Immuno Research #109-606-170) was added per well and the mixture was incubated on ice for 30 minutes. After the washing. […] Then excess secondary antibody was washed away with 0.5% BSA, the cells were resuspended by adding a PBS solution, and binding of the antibody to the cells was detected using a flow cytometer (Intellicyte iQue). The fluorescence value of a PI-negative cell population was analyzed. […]

Assay [3] has as its target T3, human CCR8 (human, UniProt P51685 1-355). Description: cell-based or functional assay.
The target in assay [4] is T4, FcγRIIIAV158 (UniProt P08637 17-208).
T4 construct: V158 allotype; also called FcγRIIIA158V
T4 sequence (P08637 17-208 F176V limits assumed): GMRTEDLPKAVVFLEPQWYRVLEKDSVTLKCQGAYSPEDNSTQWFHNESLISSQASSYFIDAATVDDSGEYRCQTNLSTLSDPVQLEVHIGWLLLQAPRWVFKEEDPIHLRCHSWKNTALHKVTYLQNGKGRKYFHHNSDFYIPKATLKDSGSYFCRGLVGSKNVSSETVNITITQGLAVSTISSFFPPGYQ
The assay is described as follows: SPR (Biacore T200), antibody captured by anti-human IgG F(ab')2 on CM5, FcγRIIIA as analyte; FcγRIIIAV158. The protocol:
as §1

In assay [5] the target is T3, human CCR8. The assay is described as follows: cell-based or functional assay. This is another data set of the same source.
The target in assay [6] is T3, human CCR8. Description: flow cytometry on CHO-hCCR8 cells. The method, then:
(§2) 5×10⁴ CHO-hCCR8 or CHO-cynoCCR8 cells were added per well in a 96-well U-shaped plate and centrifuged to discard the supernatant. 100 μL of a gradiently diluted anti-CCR8 chimeric antibody was added per well and the mixture was incubated on ice for 60 minutes. After the unbound primary antibody was washed away, 50 μL, of a secondary antibody AlexaFluro647 anti-human IgG (Jackson Immuno Research #109-606-170) was added per well and the mixture was incubated on ice for 30 minutes. After the washing, 50 μL of 5 μg/mL of a Pi/BSA solution was added to each well and the mixture was incubated on ice for 5 minutes. Then excess secondary antibody was washed away with 0.5% BSA, the cells were resuspended by adding a PBS solution, and binding of the antibody to the cells was detected using a flow cytometer (BD Celesta). The fluorescence value of a PI-negative cell population was analyzed. Cell-binding curves were fitted by Graphpad Prism 7.

The target of assay [7] is T5, cynomolgus monkey CCR8 (cynomolgus monkey, UniProt O97665 1-356 (rhesus entry)).
T5 construct: Full-length, stably expressed on CHO cells; also called cynoCCR8; CHO-cynoCCR8
T5 sequence (O97665 other isoform, or with tags, fused parts or gaps): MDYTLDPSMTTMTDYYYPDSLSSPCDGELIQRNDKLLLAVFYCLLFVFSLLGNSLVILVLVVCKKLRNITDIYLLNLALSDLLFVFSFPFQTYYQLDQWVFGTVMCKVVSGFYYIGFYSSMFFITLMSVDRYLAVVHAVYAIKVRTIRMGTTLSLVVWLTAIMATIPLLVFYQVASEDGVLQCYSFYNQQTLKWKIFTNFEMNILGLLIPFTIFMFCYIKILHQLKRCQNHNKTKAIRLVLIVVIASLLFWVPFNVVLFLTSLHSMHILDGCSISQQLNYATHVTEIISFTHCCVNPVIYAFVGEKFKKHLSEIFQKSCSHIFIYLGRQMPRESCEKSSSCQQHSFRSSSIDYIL
Description: flow cytometry on CHO-cynoCCR8 cells. The method, then:
as §2

We go through two molecules from patent US20250215097A1 (BEIJING TIANNUOJIANCHENG PHARMA TECH, published 2025).

T3 sequence (P51685 whole entry): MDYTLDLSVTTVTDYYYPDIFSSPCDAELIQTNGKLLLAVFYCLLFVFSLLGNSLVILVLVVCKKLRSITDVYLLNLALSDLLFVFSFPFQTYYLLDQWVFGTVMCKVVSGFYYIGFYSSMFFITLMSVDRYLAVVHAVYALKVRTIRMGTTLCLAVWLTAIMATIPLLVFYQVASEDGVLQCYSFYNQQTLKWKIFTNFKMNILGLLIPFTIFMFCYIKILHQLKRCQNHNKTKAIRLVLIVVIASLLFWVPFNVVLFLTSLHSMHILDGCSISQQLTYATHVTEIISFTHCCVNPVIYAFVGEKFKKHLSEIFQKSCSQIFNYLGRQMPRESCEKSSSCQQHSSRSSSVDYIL
T1 sequence (P08637 17-208 limits assumed): as the sequence (P08637 17-208 F176V limits assumed) above, with V160F counted along it

B1: h87D8 H2K4 hIgG1 e5 (antibody)
heavy: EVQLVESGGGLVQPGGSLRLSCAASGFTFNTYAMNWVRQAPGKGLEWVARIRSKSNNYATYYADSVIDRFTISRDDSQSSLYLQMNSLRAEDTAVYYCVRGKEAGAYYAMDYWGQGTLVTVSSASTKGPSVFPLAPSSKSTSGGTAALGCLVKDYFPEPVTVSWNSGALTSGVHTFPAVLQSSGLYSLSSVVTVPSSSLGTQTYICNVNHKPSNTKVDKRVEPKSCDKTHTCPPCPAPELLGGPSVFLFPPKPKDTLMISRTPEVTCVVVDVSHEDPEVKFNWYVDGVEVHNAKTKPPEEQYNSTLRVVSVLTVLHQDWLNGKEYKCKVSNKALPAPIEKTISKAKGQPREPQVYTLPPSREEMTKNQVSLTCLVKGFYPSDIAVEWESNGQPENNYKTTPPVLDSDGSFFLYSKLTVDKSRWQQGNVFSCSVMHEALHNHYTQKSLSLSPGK
light: DIVMTQSPLSLPVTPGEPASISCRSSKSLLHSNYNTYLYWFLQKPGQSPQLLIYRTSNLASGVPDRFSGSGSGTDFTLKISRVEAEDVGVYYCMQHLEYPLTFGQGTKLEIKRTVAAPSVFIFPPSDEQLKSGTASVVCLLNNFYPREAKVQWKVDNALQSGNSQESVTEQDSKDSTYSLSSTLTLSKADYEKHKVYACEVTHQGLSSPVTKSFNRGEC
notes: also called h87D8 H2K4 e5; h87D8H2K4e5; copies: 2 + 2
In assay [1], B1 registered a Kd of 433 nM. In assay [2], the EC50 is 0.21 nM. Further, in assay [3], the “ADCC EC50 (nM), PBMC FcγRIIIA158F/F effectors, HEK293-hCCR8 targets” value worked out at 0.02 nM; the “ADCC EC50 (nM), PBMC FcγRIIIA158V/V effectors, HEK293-hCCR8 targets” value is 0.01 nM; the “ADCC maximal lysis rate, PBMC FcγRIIIA158F/F effectors, HEK293-hCCR8 targets” value stood at 77%; the “ADCC maximal lysis rate, PBMC FcγRIIIA158V/V effectors, HEK293-hCCR8 targets” value was 75%. This molecule came in with a Kd in assay [4] of 270 nM. For the same molecule, in assay [5], the “ADCC half-maximal effective concentration EC50, NK92-CD16A effectors, HuT78 targets” value came to 0.53 nM; the “ADCC maximal lysis rate, NK92-CD16A effectors, HEK293-hCCR8 targets” value came to 61%; the “half-maximal effective concentration EC50 of inhibition of the Ca2+ current signal, CHO-hCCR8 cells, CCL1 stimulus” value is 5.2 nM.

B2: h87D8 H2K4 hIgG1 (antibody)
heavy: not shown
light: B1 light
notes: Humanized, wild-type human IgG1 Fc; also called h87D8 VHv2+h87D8 VKv4; copies: 2 + 2
As for B2, the Kd came to 1300 nM in assay [1] and 861 nM in assay [4]. Besides, the EC50 in assay [6] was 0.68 nM; in assay [7], 2.28 nM.
